Two substances from PMC11370418 can be followed below.

The Kd is the equilibrium constant for the complex coming apart.

What all share (assay): …
Assay [1] has as its target DDIT3-GS-DDIT3 synthetic AD (human).
In assay [2] the target is MYB-GS-MYB synthetic AD (human).
Assay [3] concerns the target monomeric enhanced green fluorescent protein (meGFP).

Bounds are passed on as bounds.

In the case of P300 KIX domain (domain or fragment), the fold change of Kd against single-site DDIT3 in assay [1] is less than 1.1 fold. The substance further gave a fold change of Kd against single-site MYB in assay [2] of less than 1.1 fold.
With “TFIID domain TAF12 (from UniProt Q16514 1-161) (natural protein)”, the Kd in assay [3] was more than 100 µM.
